Data from the nanobody polyreactivity screen of Harvey et al. (2022).

test: yeast display, Sf9 membrane polyspecificity reagent, FACS + sequencing; frameworks hold sequencing errors
How it was run: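 Genes from sorted yeast were amplified by colony PCR, read by MiSeq 2 × 250 sequencing and filtered on CDR length. These cells carried a synthetic nanobody library in Saccharomyces cerevisiae BJ5465 and were sorted by FACS into low and high (top ~1%) gates on anti-HA and streptavidin fluorescence. Polyreactivity is labelled according to the gate of origin.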

Row | Sequence | polyreactivity (PSR sort gate)
1 | QVQLVESGGGLVQAGGSLRLSCAASGSTFGKYAMGWYRQAPGKERELVASISRSGASTYYADSVKGRFTISRDNAKNTVYVQMNSQKPEDTAVYYCNKARNPEGYWRYDYWGQGTQVTVSS | high polyreactivity
2 | QVQLVESGGGLVQAGGSLRLSCAASGRTFYPYAMGWYRQAPGKERELVAAIDYSSATTYYADSVKGRFTISRDNAKNTVYLQMNSLKPEDTAVFYCARVGIGVGWTKLNYWGQGTQVTVSS | low polyreactivity
3 | QVQLVESGGGLVQAGGSLRLSCAASGRTFFYYAMGWYRQAPGKERELVAAITTDGGTTSYADSVKGRFTISRDNAKNTVSLQMNSLKPEETAVYYCAADASYQYYPYDYWGQGTQVTVSS | low polyreactivity
4 | QVQLVESGGGLVQAGGSLRLSCAATGRIFNPNAMGWYRQAPGKERELVAAITSGDSTNYADSVKGRFTISRDNAKNTVYLQMNSLKPEDTAVYYCAAGPSYRPPWLRQGGYDYWGQGTQVTVSS | low polyreactivity
5 | QVQLVESGVGLVQAGGSLRLSCAASGSIFWQNTMGGYRPAPGKERELVATITSAGSTYYADSVKGRFTISRDNAKNTVSLQMNSLKPEDTAVYYGAKGHHPGHVFHPDYGYDYWGQGTQVTVSS | low polyreactivity
6 | QVQLVESGGGLVQAGGSLRLSCAASGFIFSPNAMGWYRQAPGKEREFVAAIRYSGTSTSYADSVKGRFTISRDNAKNTVYLQMNSLKPEDTAVYYCAAGRSNSYSPRRRVTYGYNYWGQGTQVTVSS | high polyreactivity
7 | QVHLVESGGGLVQAGGSLRLSCAASGRTFRYYAMGWYRQAPGKERELVASISSTGGNTYYADSVKGRFTISRDNAKNTVYLQMNSLKPEDTAVYYCAAGAWTRGQYYYWGQGTQVTVSS | high polyreactivity
8 | QVQLVESGGGLVQAGGSLRLSCAASGRSIAYYAMGWYRQAPGKERELVAAINWSGGRTYYADSVKGRFTLSRDNAKNTVYLQMNSLKPEETAVYYCNAVYNESRGSYQDDYWGQGTQVTVSS | high polyreactivity
9 | QVQLVESGGGLLQAGGSLRLSCAASGFIFIQYAMGWYRQAPGKEREFVAAITGRGSSTYYADSVKGRFTISRDNAKNTVYLQMNSLKPEDTAVFYCAADRDSYIFYYYWSYDYWGQGTQVTVSA | high polyreactivity
10 | QGQLEDSGGGLVQAGGSLRLSCAASGFSFRSYGMGRYRQAPGKERELVAVISRSGGNTYYAASVKGRFTISRHNAKNTVYLQMHSLKPEDTAVYYCAATLVGTVIRRFDDWGQGTQVTVSS | high polyreactivity
11 | QVQLVESGGGLVQAGGSLRLICAASGSIFVGNAMGWYRQAPGKERELVAAITSSGGRTYYADSVKGRFTISRDNAKNTVYLQMNSLKPEDTAVYYCNTSRTRRFSLWAYDYWGQGTQVTVSS | high polyreactivity
12 | QVQLVESGGGLVQAGGSLRLSCAASGSIFDYYAMGWYRQAPGKERELVAAISNGRTTNYADSVKGRFTISRDNAKNTVYLQMNSLKPEDTAVYYCNADSALYDKAVIYSEYDYWGQGTQVTVSS | low polyreactivity
13 | QVQLVESGGGLVQAGGSLRLSCAASGGTFSGYVMGWYRQAPGKERELVAAISRRGTTTYYADSVKGRFTISRDNAKNTVYLQMISLKPEDTAVYYCAAVTRWKRTLSSFYYWGQGTQVTVSS | high polyreactivity
14 | QVQLEDSGGGLVQAGGSLRLSCAASGFTFYSYAMGWYRQATGKERELVAAISWSGTRTYYADSVKGRFTISRDNAKNTVYLQMNSLKPEDTAVYYCAARGYRYGYGYWGQGTQVTVSS | high polyreactivity
15 | QVQLVESGGGLDQAGGSLRLSCAASGIIFEQYAMGWYRQAPGKERELVAAISSGGTTYADSVKGRFTISRDNAKNTVYLQMNSLKPEYTAVYYCNDDLSWHGPDWSDYEYDYWGQGTQVTVSS | low polyreactivity
16 | QVQLVESGGGLVQAGGSLRLICAASGYIFAYNTMGWYRQAPGKERELVAAISRSGGSTYYADSVKGRFTISRDNAKNTVYLQMNSLKPEDTAVYSCAARYAPLDFRFDYWGQGTQVTVSS | high polyreactivity

Row | Sequence | polyreactivity (PSR sort gate)
17 | QDQHVESGGGLVQAGCSLRLSCAASGSIFKDNAMGWYRPAPCKEWELVADITIGDSTTYEDSVKGRFTISRDNAKNTVYLHMNSLKPEDTAVYYCAADNYIIKYDYWDYDYCGQGTQVTVSS | low polyreactivity
18 | QVQLVESGGGLVQAGGSLRLSCAASGYIFKYYAMGWYIQAPGKERELVASITSGGRTNYADSVKGRFTISRDNAKNTVYLQMNSLKPEDTAVYYCAATSKYQQDPRRYDYWGHGTQVTVSS | high polyreactivity
19 | QVQLVESGGGLVQAGGSLRLSCAASGRTFALYAMGWYRHAPGKERELVASISWRGGSTYYADSVKGRFTISRDNAKNTVYLQMNSLKPEDTAVYYCAADTWSYGPLNYRLEYWGQGTQVTVSS | low polyreactivity
20 | QVHLVESGGGLVQAGGSLRLSCGASGSIFFIYAMGCYRQAPGKERELVATITSGGSTYYADSLKGRFTISRDNAKNTVYLQMNSLKPEDTAVYYCAVDEYFAFDYWGLGTQVTVSS | low polyreactivity
21 | QVQLVESGGGLVQAGGSLRLSCAASGSTFPDNAMGWYRQAPGKERELVAAISFSSGSTYYADSVKGRFTISRDNAKNTVYLQMNSLKPEDTAVYYCAVANPSPYEWIAYYYWGQGTQVTVSS | low polyreactivity
22 | QVQLVESGGGLVQAGGSLRLSCAASGSTFSPNVMGWYRQAPGKERELVAAISSSTGSTNYADSVKGRFTISRDNAKNTVYLQMNSLKPEDTAVYYCAVDPYVHWTTKLYDYWGQGTQVTVSS | low polyreactivity
23 | QVQLGESGGGLVQAGGSLSLSCAASGFSISWYVMGWYRLAPGKERELVAAISWSGDRTYYADSVKGRFTISRDNAKNTVYLQMNSLKPEDTAVFYCAARRWRKYFSGYNYWGQGTQVTVSS | high polyreactivity
24 | QVQLVESGGGLVQEGGSLRLSCAASGRIFGVNAMGWYRQAPGKERELVAAIFSGGSTYYADSVKGRFTISRDNAKNTVYLQMNSLKPEDTAVYYCAARFARYDWSMYYWGQGTQVTVSS | low polyreactivity
25 | QVQLVESGGGLVQAGGSLSLSCAASGRMFLRYAMGWYRQAPGKERELVAVITWSGGSTYYADSVKGRFTISRDNAKNTVYLQMNSLKPEDTAVYYCAADWYPTGFYYWGQGTQVTVSS | low polyreactivity
26 | QVQLVESGGGLVQAGGSLRLSCAASGFTFHSYAMGWYRQAPGKERELVAAISRGGGSTYYADSVKGRFTISRDNAKYTVYLQMNSLKPEDTAVYYCAARGQGGYRVGYYYWGQGTQVTVSS | high polyreactivity
27 | QVQLVESGGGLVQAGGSLRLSCAASGRTLPFNAMGWYRQAPGKERELVAAITRGGSTNYADSVKGRFTISRDNAKNTVYLQMNSLKPEDTAVYYCAARRYAWYGYRAYDYWGQGTQVTVSS | high polyreactivity
28 | QVQLVESGGGLVQAGGSLRLSCAASGRIFSTNAMGWYRPAPGKERELVAAINWSTGSYVLRRSVKGRFTISRDTAKNTVYLQMNSLKPEDTAVYYCAATWRNPGKATQRYYYWGQGTQVTVSS | high polyreactivity
29 | QVQLVESGGGLVQAGGSLRLSCAASGYIFFNAMGWYRQAPGKERELVAAITYPVGSTHYADSVKGRFTISRDNAKNTVYLQMNSLKPEDTAVYYCAAEWYQYLRWYWTYEYYWGQGTQVTVSS | low polyreactivity
30 | QVQLVESGGGLVQAGCSLRLSCAASGSIFYQYSMGWYRQAPGKERELVAAITWDGSRTYYADSVKGRFTISRDNAKNSVYLQMNSLKPEDTSVYYSNAVTRYSLFDYWGLGTQVTVSS | high polyreactivity
31 | QVQLEESGGGLVQAGGSLRLSCAASGSTFSSNVMGWYRQAPGKERELVAAITGSGSRTYYADSVKGRFTISRDNAKNTVYLQMNSLKPEDTAVYYCNTKGRSRETYGYDYWGQGTQVTVSS | high polyreactivity
